What all share (conditions): both partners purified
Experiment [1] deals with T1, recombinant CCT4 (Homo sapiens, UniProt P50991).
T1 construct: CCT4 subunit of TRiC, expressed recombinantly; Construct not described
The experiment can be described thus: BLI; Octet RED384, 25 °C, 20 mM HEPES pH 7.5, 150 mM NaCl, 0.1% BSA; biotinylated CCT5 on streptavidin sensors; Nb18 40 μM to 39 nM; steady-state fit. A general note: Biolayer interferometry detects binding as a change in optical thickness at a sensor tip.

Experiment [2] addresses T2, recombinant human CCT5 homo-oligomer (hexadecameric form, CCT5_(16)) (Homo sapiens (Human)., UniProt P48643, biotin (for BLI)).
T2 construct: it mentions that recombinant CCT5 was earlier made with a C-terminal His-tag; also called recombinant CCT5; overexpressed CCT5; source: E. coli, recombinant; copies: 16
The description is as above.

Experiment [3] has as its target T3, endogenous human TCP-1 ring complex (TRiC), CCT5 tagged with 3×FLAG/Spytag (human, UniProt P17987;P78371;P49368;P50991;P48643;P40227;Q99832;P50990).
T3 construct: CCT1 subunit of human TRiC; CCT2 subunit of human TRiC; CCT3 subunit of human TRiC; CCT4 subunit of human TRiC; CCT5 subunit of human TRiC, tag knocked into the genomic locus; CCT6 subunit of human TRiC; predominantly the CCT6A isoform by MS/MS and side-chain modelling; CCT7 subunit of human TRiC; CCT8 subunit of human TRiC; Hexadecamer of two back-to-back rings of eight paralogous subunits; also …
The experiment can be described thus: cryo-EM structure; purified TRiC (1.5 mg/ml) premixed with Nb18 at 1:1 molar ratio, 1 mM ATP, 5 mM MgCl2, AlFx; closed and open states.

From article PMC9113939, “Snapshots of actin and tubulin folding inside the TRiC chaperonin” (Nature Structural & Molecular Biology, 2022) come the findings set out here.

T2 sequence (P48643 whole entry): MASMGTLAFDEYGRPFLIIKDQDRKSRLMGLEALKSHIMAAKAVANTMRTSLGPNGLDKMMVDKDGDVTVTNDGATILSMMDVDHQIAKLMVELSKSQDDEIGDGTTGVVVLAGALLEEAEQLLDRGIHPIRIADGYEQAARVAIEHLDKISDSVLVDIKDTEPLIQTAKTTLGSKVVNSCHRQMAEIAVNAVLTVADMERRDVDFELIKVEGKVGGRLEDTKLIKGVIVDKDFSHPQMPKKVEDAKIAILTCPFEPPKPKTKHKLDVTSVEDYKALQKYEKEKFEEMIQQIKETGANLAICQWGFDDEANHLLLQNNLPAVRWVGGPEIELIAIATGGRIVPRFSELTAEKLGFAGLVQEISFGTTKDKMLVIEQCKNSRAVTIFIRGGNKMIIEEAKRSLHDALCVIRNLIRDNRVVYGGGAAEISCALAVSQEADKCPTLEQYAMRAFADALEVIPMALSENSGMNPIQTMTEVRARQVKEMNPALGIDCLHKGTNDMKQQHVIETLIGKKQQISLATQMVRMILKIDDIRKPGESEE
T1 sequence (P50991 whole entry): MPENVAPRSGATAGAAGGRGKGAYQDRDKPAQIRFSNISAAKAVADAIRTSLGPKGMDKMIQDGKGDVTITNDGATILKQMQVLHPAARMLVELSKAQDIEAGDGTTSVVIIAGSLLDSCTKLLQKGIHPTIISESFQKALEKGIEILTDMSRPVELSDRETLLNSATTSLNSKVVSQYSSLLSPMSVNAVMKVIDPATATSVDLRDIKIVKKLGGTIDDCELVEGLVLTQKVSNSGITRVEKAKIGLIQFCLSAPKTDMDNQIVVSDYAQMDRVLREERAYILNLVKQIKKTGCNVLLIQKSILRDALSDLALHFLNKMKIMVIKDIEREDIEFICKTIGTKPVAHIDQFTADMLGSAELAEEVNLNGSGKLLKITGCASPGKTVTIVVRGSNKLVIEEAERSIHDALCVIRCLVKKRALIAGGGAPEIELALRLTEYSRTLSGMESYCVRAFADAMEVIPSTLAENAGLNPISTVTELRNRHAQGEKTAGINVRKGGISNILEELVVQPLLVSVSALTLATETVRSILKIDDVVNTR

B1: nanobody Nb18 (VHH)
VHH: QVQLVESGGGLVQAGGSLRLSCGASGTFFRINDMGWYRQASGKQRELVASITRGGTTDYADSVKGRFTISRDNAKNTVYLQMNSLKPEDTAVYYCKANRNWGREWDDYWGQGTQVTVSS
notes: Nb18 is modelled in the TRiC–Nb18 structure solved here (PDB 7NVL); llama nanobody raised against CCT5 homo-hexadecamer, in vector pMESy4; Starting model was a homology model on PDB 6QX4 chain C (another nanobody); also called CA14679; source: E. coli, purified (Ni-NTA, SEC)
A word on the Kd: it is the constant that tells how readily two partners part at equilibrium. One may read the stoichiometry N as the number of molecules, sites or subunits per partner or assembly. With B1, the binding result in experiment [1] is recorded as “no binding (tested: Nb18 40 μM to 39 nM (methods))”. Further, the Kd in experiment [2] came to 86 nM. The “stoichiometry N” value in experiment [3] was 2.
